Results on eight sequences are retold here after the Immune Epitope Database (IEDB).

The target of one test is HLA-A*01:01. The test is described as follows: IEDB peptide-MHC binding, purified MHC/direct/fluorescence; filed as Kd, often an IC50 or EC50 that approximates it; ≥ and ≤ were set here for values at or beyond the usual limits of such assays.
The next test deals with HLA-A*03:01. Described as above.
The target in another test is HLA-A*11:01. The test is described as above.
The target in a further test is HLA-A*31:01. The description is as above.
Another test has as its target HLA-A*69:01. The description is as above.
The target in another test is HLA-B*07:02. Described as above.
The target in the next test is HLA-B*08:02. The test is described as above. Particulars: source organism: Mycobacterium tuberculosis CDC1551.
For the next test, the target named is HLA-B*15:01. Described as above.
A further test addresses HLA-B*15:09. The description is as above. The settings on record: source organism: Mycobacterium tuberculosis CDC1551.
The next test deals with HLA-B*15:17. The test is described as above. Particulars: source organism: Mycobacterium tuberculosis.
A further test deals with HLA-B*18:01. The test is described as above. The settings on record: source organism: Mycobacterium tuberculosis.
A further test deals with HLA-B*27:05. Described as above.
Another test has as its target HLA-B*40:01. The test is described as above.
The target of another test is HLA-B*46:01. Described as above. The settings on record: source organism: Mycobacterium tuberculosis.
For another test, the target named is HLA-B*48:01. The test is described as above. The settings on record: source organism: Mycobacterium tuberculosis.
The next test has as its target HLA-B*51:01. The test is described as above. The settings on record: source organism: Mycobacterium tuberculosis.
The next test deals with HLA-B*57:01. The description is as above. The settings on record: source organism: Mycobacterium tuberculosis.
The target of the next test is HLA-B*58:01. The description is as above.
The target of test [1] is HLA-A*02:01. The test can be described thus: IEDB peptide-MHC binding, purified MHC/competitive/fluorescence; filed as Kd, often an IC50 or EC50 that approximates it; ≥ and ≤ were set here for values at or beyond the usual limits of such assays. Particulars: source organism: Mycobacterium tuberculosis CDC1551.
In test [2] the target is HLA-A*02:06. The test is described as above. Particulars: source organism: Mycobacterium tuberculosis CDC1551.
In a further test the target is HLA-A*30:01. Described as above. The settings on record: source organism: Mycobacterium tuberculosis CDC1551.
For test [3], the target named is HLA-B*08:01. The test is described as above. Particulars: source organism: Mycobacterium tuberculosis CDC1551.
For test [4], the target named is HLA-A*02:01. The test is described as follows: IEDB peptide-MHC binding, purified MHC/competitive/radioactivity; filed as Kd, often an IC50 or EC50 that approximates it; ≥ and ≤ were set here for values at or beyond the usual limits of such assays.
The next test concerns the target HLA-A*02:17. The description is as above.
The target in the next test is HLA-A*02:03. The test is described as above.
Test [5] addresses HLA-A*02:06. The test is described as above.
For test [6], the target named is HLA-B*08:01. Described as above. Particulars: source organism: Dengue virus 1 Brazil/97-11/1997.
Test [7] concerns the target HLA-A*02:01. The test can be described thus: IEDB peptide-MHC binding, purified MHC/direct/fluorescence; filed as Kd, often an IC50 or EC50 that approximates it; ≥ and ≤ were set here for values at or beyond the usual limits of such assays. The settings on record: source organism: Pseudomonas putida.
A further test deals with HLA-A*24:03. Described as above. Particulars: source organism: Pseudomonas putida.
For another test, the target named is HLA-A*26:01. The test is described as above. Particulars: source organism: Pseudomonas putida.
The target of test [8] is HLA-B*08:01. Described as above. Particulars: source organism: Pseudomonas putida.
The target of another test is HLA-A*02:11. The test can be described thus: IEDB peptide-MHC binding, purified MHC/competitive/fluorescence; filed as Kd, often an IC50 or EC50 that approximates it; ≥ and ≤ were set here for values at or beyond the usual limits of such assays. The settings on record: source organism: Pseudomonas putida F1.
Where [9] appears, read: source organism: Mycobacterium tuberculosis.
[10] abbreviates: source organism: Dengue virus 4 Philippines/H241/1956.
[11] abbreviates: source organism: Dengue virus 1 Singapore/S275/1990.
Setting [12] is: source organism: Dengue virus 2 Jamaica/1409/1983.
The mark [13] stands for this setting: source organism: Pseudomonas putida.

Turning to ALRSRWRAL, the Kd (usually the concentration at which binding is half-saturated) with HLA-A*01:01 (setting [9]) is no less than 20000 nM; in the test with HLA-A*03:01 (setting [9]), no less than 20000 nM; with HLA-A*11:01 (setting [9]), no less than 20000 nM; with HLA-A*31:01 (setting [9]), no less than 20000 nM; with HLA-A*69:01 (setting [9]) it was no less than 20000 nM; in the test with HLA-B*07:02 (setting [9]), 59.5 nM. In addition, the equilibrium dissociation constant (Kd) in the test with HLA-B*08:02 is no less than 20000 nM; in the test with HLA-B*15:01 (setting [9]), 504 nM; with HLA-B*15:09 it was no less than 20000 nM; with HLA-B*15:17, no less than 20000 nM; with HLA-B*18:01, no less than 20000 nM; with HLA-B*27:05 (setting [9]), no less than 20000 nM. Also, the Kd with HLA-B*40:01 (setting [9]), in the test with HLA-B*46:01, with HLA-B*48:01, with HLA-B*51:01, in the test with HLA-B*57:01 and with HLA-B*58:01 (setting [9]) was no less than 20000 nM in each case. In addition, the dissociation constant Kd in the test with HLA-A*02:01 [1] was no less than 20000 nM; with HLA-A*02:06 [2], 556 nM; with HLA-A*30:01 it was 132 nM; with HLA-B*08:01 [3] it was 14 nM.

In the case of DLMEFIDGI, the equilibrium dissociation constant (Kd) worked out at 74.2 nM with HLA-A*02:01 [4] (setting [10]) and 1970 nM in the test with HLA-A*02:17 (setting [10]).

As to GLYPLAIPV, the Kd with HLA-A*02:01 [4] (setting [10]) was found to be 1.06 nM; with HLA-A*02:03 (setting [10]), 0.42 nM; with HLA-A*02:06 [5] (setting [10]), 125 nM; with HLA-A*02:17 (setting [10]), 53.8 nM.

Take ILLMLVTPSM: the Kd with HLA-A*02:01 [4] (setting [11]) amounted to 102 nM; in the test with HLA-A*02:17 (setting [11]) it was 1110 nM; with HLA-B*08:01 [6], 160 nM.

In the case of KLAEAIFKL, the Kd with HLA-A*02:03 (setting [12]) came to 8.68 nM; with HLA-A*02:06 [5] (setting [12]), 14.8 nM; with HLA-A*02:17 (setting [12]) it was 19.1 nM.

For the sequence RLITANPIV, the equilibrium dissociation constant (Kd) with HLA-A*02:01 [4] (setting [11]) was 61.3 nM; in the test with HLA-A*02:17 (setting [11]) it was 121 nM.

For RLLTKPWDV, the dissociation constant Kd with HLA-A*02:01 [4] (setting [12]) amounted to 27.6 nM; with HLA-A*02:17 (setting [12]), 1430 nM.

For the sequence VMTEGRHAV, the Kd is no less than 20000 nM with HLA-A*01:01 (setting [13]); 409 nM in the test with HLA-A*02:01 [7]; no less than 20000 nM with HLA-A*03:01 (setting [13]); no less than 20000 nM with HLA-A*11:01 (setting [13]); no less than 20000 nM with HLA-A*24:03; no less than 20000 nM with HLA-A*26:01. Besides, the Kd with HLA-A*31:01 (setting [13]) is 991 nM; with HLA-A*69:01 (setting [13]) it was 712 nM; with HLA-B*07:02 (setting [13]), 330 nM; with HLA-B*08:01 [8] it was 7120 nM; with HLA-B*15:01 (setting [13]), 3700 nM; with HLA-B*27:05 (setting [13]) it was no less than 20000 nM. Moreover, the Kd is no less than 20000 nM in the test with HLA-B*40:01 (setting [13]), no less than 20000 nM with HLA-B*58:01 (setting [13]) and no more than 1 nM in the test with HLA-A*02:11.
